Assay results as given in the supplement of paper PMC12764529.
± gives the half width of the 95% confidence interval.

experiment: folding stability dG unfold (combined trypsin and chymotrypsin); higher = more stable
Summary of the method: (§1)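 Unfolding free energy was derived, per protease or combined, against a sequence-predicted unfolded-state K50 and a shared folded-state K50, starting from K50 inferred by Bayesian fitting of sequencing counts. Digestion with trypsin and chymotrypsin was carried out on designed mini-proteins under 80 residues without cysteine in a PA-tagged cDNA display construct. Only designs with AlphaFold2 dimer inter-PAE above 15 were kept.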

Sequence | folding stability dG unfold
SAGGSPIISTEKSSSGVTTITFPDGTVVTEVTTPLPDGTVLTTTTVTPPNAPVSTTTTTDPVPPGLPSAGGS [r16_211_JUSTAS] | 0.767 ± 0.062 kcal/mol
SAGGSAGGSAGGKVEIYENPSTPYLVVVVYNPETGEKTVVLFKPDNPELAEKVAKELASSAGGSAGGSAGGS [r10_1117_TrMRF] | 1.38 ± 0.11 kcal/mol
SAGGSAGGSAGGKTYRVKVRIYNPETGEVLEIEVEVETDTEEEAKRAAENLARELLKKSSAGGSAGGSAGGS [r10_863_TrROS_Hall] | 3.47 ± 0.12 kcal/mol
SMKIIIEIEVEPGKTEEEIKEEAEALAKELAKKLGLPKEAKVKIEKVKLEDGKLRYIITIEVDGKTIEFESA [r9_776_TrROS_Hall] | 3.75 ± 0.24 kcal/mol
SAGMLRELLDNPDVKRLEIVIFIPEEDLSEEDRERARERARELAERLRELLRERGYDVEIEVRIVRLPPSAG [r5_408_TrROS_Hall] | 3.39 ± 0.088 kcal/mol
SAGGSAGGSAGPFKIEMTFIFKKDNEYYIAKIEIEISPDGYPKMKIEIKKVDINELENYFSAGGSAGGSAGG [r11_690_TrMRF] | 4.04 ± 0.4 kcal/mol
SMKTKTVTLDLSPEDPEAARAAVEAAIAEARAADPDTEVTVTVTISPEHPELLAEIEALAAERGVSLVLGSA [r9_1202_JUSTAS] | 2.81 ± 0.097 kcal/mol
SAGGDMWMIKVEHPNGRPFQIMINPNKPEISIQFNDGETRTFPIPKDYTIEDLAKELPPGYKVEIHPMSAGG [r13_696_TrROS] | 2.4 ± 0.17 kcal/mol
SAGGSAGGSAKKKKKKKKYKPKPVKIFKIKLKLKLEKTKDGLKLKIEEIEIEEIATLEKGLSAGGSAGGSAG [r3_397_TrROS_Hall] | 2.43 ± 0.44 kcal/mol
SVIKLPIWYPNSPAEQAEEMVQSLARKFMDKYGLKIDVEVETRRDPDGKPRWVRIEATIQYRDEDGKPIFSA [r9_21_TrROS] | 2.07 ± 0.26 kcal/mol
SAGGSAGGSAGLKLLEKELRVLTYDPETGSLSESTLRVPVLLVPPVPVPVLDPNGGLTLASAGGSAGGSAGG [r11_307_TrMRF] | 0.143 ± 0.11 kcal/mol
SAGKPLPKLKTYEVDVPDNKKVKIEVYKLPDGTAIVKIKDDNGNESEIEIPLSLLENLSVEDLVKLAKSAGG [r19_47_TrMRF] | 1.9 ± 0.095 kcal/mol
SAGEEIAKRLAEELKEKGYEVEVKVTVEYDEETGEVTITIEIKVKPKPAPPVKIEKKLEGMSEEEKKALSAG [r5_413_TrROS_Hall] | 0.187 ± 0.29 kcal/mol
SAGGSAGGMVKVYPIDPNTPPEAVVARLEKEFPDRPIKSVSVSTVGDVPVVTITFPDGLKVVVSSAGGSAGG [r6_492_JUSTAS] | 1.23 ± 0.072 kcal/mol
SAPGLRTYTIYDPSGVRRTFPPSWDVTILEYDPKTGTVTLKITKHNTDPGAPVSTETEKRKATFLRDVESAG [r14_927_JUSTAS] | 0.725 ± 0.061 kcal/mol
SAGGSAGGSSMSSTVEKEPDDVLIISTKVFFDTDTYSTLTTIVEVKPPLDPSNPELLARALGLLSAGGSAGG [r6_293_JUSTAS] | 1.3 ± 0.063 kcal/mol
SAGGSAGGSAGGSKTYRIYFKDNNKVITVKSKEDLKAALEKAGYTISEEDLDKIVKIEPSAGGSAGGSAGGS [r4_104_TrROS_Hall] | 1.8 ± 0.087 kcal/mol
SAGGSAKKDGTITIKIPVKAPKDKNGKVFKPSAEAIKAKFGELGFDFEIEEIKESETYLEIKIKVKSAGGSA [r15_225_TrMRF] | 1.53 ± 0.21 kcal/mol
SMKEKALEKAKEKAEEIKKKYSNVKVKVEVKVEITPKGEIKITYKVVIEKPEKEKPYWVKYPNGPWKKIGSA [r9_82_JUSTAS] | 1.5 ± 0.55 kcal/mol
SAGGKATVTITEVKVETETVTLKYDPETGELVEKTETVTRVEVKTITIEADKNPELAEELLKKLGIESAGGS [r16_467_TrROS_Hall] | 2.56 ± 0.28 kcal/mol
SAGGSAGGLEIVLPREELEELIRRGEIDEVEIERSEDDLVRARPIIRPPPPLPPEVGALLRALASAGGSAGG [r6_278_TrMRF] | 1.56 ± 0.37 kcal/mol

Sequence | folding stability dG unfold
SAGGSAMVDKTMTEEEARAFAEASGDPRVTVEPVENPNNDPNAPKKWRITVDGSGTPGSTILFTSPSAGGSA [r15_428_JUSTAS] | -0.55 ± 0.089 kcal/mol
SDKVVIHFYPGMPVSNIVERVADNPDMTIEIVMPPGMKPSWYNYIRKALRDANIPKDQKVEIEWVPYDDMSA [r9_670_TrROS] | 3.59 ± 0.081 kcal/mol
SAGGSPETKTISFKYPGNGMRIMVQVERDPADGKKKITINMENNPYMAERAKKALEELGLPVEIHPSAGGSA [r2_30_TrROS] | 1.32 ± 0.12 kcal/mol
SAGGSAMSVTLTFEEPVGPGVPVKVTVTVERFPDSVKVTVTTTFPDGTVTTTPVSLKLEPAAVDLLSAGGSA [r15_263_JUSTAS] | 2.54 ± 0.082 kcal/mol
SAGEWYRMSITFDLDPDNRDQLEKIAEKIREKDGFDKIEPVEHDPSNGRVTINVYMPPEAQDKIQEALRSAG [r5_193_TrROS] | 1.27 ± 0.18 kcal/mol
SAGGSAGGMTVPITLPLDEYSPEEVEAKIKAIREEIEKKNPDKKISINVTLVPQPPEPTPENLRSAGGSAGG [r6_729_JUSTAS] | 0.299 ± 0.07 kcal/mol
SAGGSAGGSASLDLSNATVLEEKTDPAKGLKTLTIKTPTSTLTITVEFDENGNPVKMTVFESAGGSAGGSAG [r3_5_JUSTAS] | 2.03 ± 0.048 kcal/mol
SAGGGSMSESLSLVEEEIKVGETVVKVKRLIYPVSGTALVEITKPGGGPIGVFNTTISPSTGGVELLSAGGS [r16_798_JUSTAS] | < -1 kcal/mol
SAGGSAGGSKKEYLVLVYNPATGEPFPILAPDDVPFEELAKKIADEILKGLPKDVKIEFVKLGSAGGSAGGS [r20_213_TrMRF] | 0.874 ± 0.17 kcal/mol
SMLKPGDIVKLPNGPIYVVKKLTISYDPSTSPPKLELELVPLGEPKPVLKEYTLPDGSTKTEIGYYWTGPSA [r9_914_TrMRF] | 0.98 ± 0.12 kcal/mol
SAGGLLVVLPPDLTPEELREKALELAELARKAGDFEVERIELVRDEETDRPYAVLVIRDPRTGKILVASAGG [r13_669_TrMRF] | 1.23 ± 0.042 kcal/mol
SAGGATIELEAEEHPETKKITIYVKSENPILTIEKIAKELKEKEDDIELTLVNEDGVPYTIKLEDLISAGGS [r8_236_TrMRF] | 0.217 ± 0.3 kcal/mol
SAGMTITLDGVEITVERVRDEETGEWYYRVTVTVTTEDGEKVTITVTVPEGMTPEQVEALARELAEALASAG [r5_704_TrROS_Hall] | 4.54 ± 0.19 kcal/mol
SAGGSAGGSAAKIELEDGTLRITLTRTVRDPATGETHTETLTLEIKLPPAPPPVVVVSPEDLSAGGSAGGSA [r18_501_TrROS_Hall] | 2.88 ± 0.092 kcal/mol
SAGTVSSSFDPATGTLTITRTTSPDETVDLTLNVEVPETPATVAKVDSGGPVEGDEPVTITVELTDLKPSAG [r5_737_JUSTAS] | -0.152 ± 0.24 kcal/mol
SAGGKTIEVEIVVPPDMTPEEVAARLAAALPPGAKIRVEEVREVTGPDGRKYRIFKVTIYDEKTGEPLSAGG [r13_12_TrROS_Hall] | 3.12 ± 0.16 kcal/mol
SAGGKKIKAKVIEIKKIGDKVLVTIERPDGSPDEVLIDKKEVAEKITPESEVEIEVFPDGSVKIKVGSAGGS [r16_2_TrMRF] | 2.15 ± 0.19 kcal/mol
SAGGSAGGSAGGKLILKVKVEVVSVKVEPLPGVPGEVKVEVEVKVEVELIEVSEEELKSSAGGSAGGSAGGS [r10_654_TrROS_Hall] | 2.19 ± 0.18 kcal/mol
SAGGSAGGSAGGEPELVFKVRVRTKDGRELEIEVSAEDLEKLLEALPDIEEVEIEEVEPSAGGSAGGSAGGS [r10_437_TrROS_Hall] | 2.6 ± 0.14 kcal/mol
MKPGETKTLTLTIVDEETGETYTVKVTVTYDEDTGVVTIKAEITYPDGRKFTVTARFNRETGELTEISIEPS [r1_144_TrROS_Hall] | 4.32 ± 0.098 kcal/mol
SALPNLKIEITLNEDGTITITVTANGEVIATATLTVTLPPPPVEKEVLDANGNKRTVRYDAKTGKAEVFDSA [r9_343_TrROS_Hall] | 0.0728 ± 0.47 kcal/mol

experiment: folding stability dG unfold from trypsin proteolysis; higher = more stable
Summary of the method: as §1

Sequence | folding stability dG unfold
SAGGSPIISTEKSSSGVTTITFPDGTVVTEVTTPLPDGTVLTTTTVTPPNAPVSTTTTTDPVPPGLPSAGGS [r16_211_JUSTAS] | 0.775 ± 0.062 kcal/mol
SAGGSAGGSAGGKVEIYENPSTPYLVVVVYNPETGEKTVVLFKPDNPELAEKVAKELASSAGGSAGGSAGGS [r10_1117_TrMRF] | 0.711 ± 0.077 kcal/mol
SAGGSAGGSAGGKTYRVKVRIYNPETGEVLEIEVEVETDTEEEAKRAAENLARELLKKSSAGGSAGGSAGGS [r10_863_TrROS_Hall] | 2.69 ± 0.045 kcal/mol
SMKIIIEIEVEPGKTEEEIKEEAEALAKELAKKLGLPKEAKVKIEKVKLEDGKLRYIITIEVDGKTIEFESA [r9_776_TrROS_Hall] | 3.72 ± 0.29 kcal/mol
SAGMLRELLDNPDVKRLEIVIFIPEEDLSEEDRERARERARELAERLRELLRERGYDVEIEVRIVRLPPSAG [r5_408_TrROS_Hall] | 3.5 ± 0.11 kcal/mol
SAGGSAGGSAGPFKIEMTFIFKKDNEYYIAKIEIEISPDGYPKMKIEIKKVDINELENYFSAGGSAGGSAGG [r11_690_TrMRF] | 2.52 ± 0.15 kcal/mol
SMKTKTVTLDLSPEDPEAARAAVEAAIAEARAADPDTEVTVTVTISPEHPELLAEIEALAAERGVSLVLGSA [r9_1202_JUSTAS] | 2.74 ± 0.058 kcal/mol
SAGGDMWMIKVEHPNGRPFQIMINPNKPEISIQFNDGETRTFPIPKDYTIEDLAKELPPGYKVEIHPMSAGG [r13_696_TrROS] | 2.25 ± 0.1 kcal/mol
SAGGSAGGSAKKKKKKKKYKPKPVKIFKIKLKLKLEKTKDGLKLKIEEIEIEEIATLEKGLSAGGSAGGSAG [r3_397_TrROS_Hall] | 1.88 ± 0.12 kcal/mol
SVIKLPIWYPNSPAEQAEEMVQSLARKFMDKYGLKIDVEVETRRDPDGKPRWVRIEATIQYRDEDGKPIFSA [r9_21_TrROS] | 1.81 ± 0.084 kcal/mol
SAGGSAGGSAGLKLLEKELRVLTYDPETGSLSESTLRVPVLLVPPVPVPVLDPNGGLTLASAGGSAGGSAGG [r11_307_TrMRF] | -0.696 ± 0.27 kcal/mol
SAGKPLPKLKTYEVDVPDNKKVKIEVYKLPDGTAIVKIKDDNGNESEIEIPLSLLENLSVEDLVKLAKSAGG [r19_47_TrMRF] | 0.77 ± 0.028 kcal/mol
SAGEEIAKRLAEELKEKGYEVEVKVTVEYDEETGEVTITIEIKVKPKPAPPVKIEKKLEGMSEEEKKALSAG [r5_413_TrROS_Hall] | 0.113 ± 0.12 kcal/mol
SAGGSAGGMVKVYPIDPNTPPEAVVARLEKEFPDRPIKSVSVSTVGDVPVVTITFPDGLKVVVSSAGGSAGG [r6_492_JUSTAS] | 0.975 ± 0.029 kcal/mol
SAPGLRTYTIYDPSGVRRTFPPSWDVTILEYDPKTGTVTLKITKHNTDPGAPVSTETEKRKATFLRDVESAG [r14_927_JUSTAS] | 0.575 ± 0.09 kcal/mol
SAGGSAGGSSMSSTVEKEPDDVLIISTKVFFDTDTYSTLTTIVEVKPPLDPSNPELLARALGLLSAGGSAGG [r6_293_JUSTAS] | 1.1 ± 0.026 kcal/mol
SAGGSAGGSAGGSKTYRIYFKDNNKVITVKSKEDLKAALEKAGYTISEEDLDKIVKIEPSAGGSAGGSAGGS [r4_104_TrROS_Hall] | 1.69 ± 0.046 kcal/mol
SAGGSAKKDGTITIKIPVKAPKDKNGKVFKPSAEAIKAKFGELGFDFEIEEIKESETYLEIKIKVKSAGGSA [r15_225_TrMRF] | 0.51 ± 0.086 kcal/mol
SMKEKALEKAKEKAEEIKKKYSNVKVKVEVKVEITPKGEIKITYKVVIEKPEKEKPYWVKYPNGPWKKIGSA [r9_82_JUSTAS] | 1.2 ± 0.24 kcal/mol
SAGGKATVTITEVKVETETVTLKYDPETGELVEKTETVTRVEVKTITIEADKNPELAEELLKKLGIESAGGS [r16_467_TrROS_Hall] | 1.69 ± 0.11 kcal/mol
SAGGSAGGLEIVLPREELEELIRRGEIDEVEIERSEDDLVRARPIIRPPPPLPPEVGALLRALASAGGSAGG [r6_278_TrMRF] | 0.891 ± 0.2 kcal/mol
